PMC8478157 (Nature, 2021)

Target: the molecule itself
Test: native gel or EMSA

B1: recombinant eGFP–GBPL3 (natural protein, Arabidopsis thaliana, UniProt F4KG14 1-1082, looked up)
chain: MRSFFGRGGKDSPADSASPSPRSYPSTSPASSSAVTGPPRPIRLVYCDEKGKFRMDPEAVATLQLVKEPIGVVSVCGRARQGKSFILNQLLGRSNGFQVASTHKPCTKGLWLWSSPIKRTALDGTEYNLLLLDSEGIDAYDQTGTYSTQIFSLAVLLSSMFVYNQMGGIDEASLDRLSLVTQMTKHIRVKASGGTSSRSELGQFSPIFVWLLRDFYLDLVEDNRKISPRDYLEIALRPVQGSGGDIGAKNEIRDSIRALFPDRECFTLVRPLNNEKDLQRLDQISLEKLRPEFGAGLDAFTKFVFEKTRPKQLGGTVMTGPILVGITQSYLDALNNGAVPTITSSWQSVEETECRRAYDSGVEAYMAAFDQSKAPEEGALREEHEEAVRKALAIFNSNAVGNGSARKKFEDLLHKDLKKKFEDYKKNAFMEADLRCTSTIQRMEKQLRAACHASNANMDNVVKVLEARLAEYEASCHGPGKWQKLSVFLQQSLEGPIYDLTKRLIDSIAIEKNSLAMKFRSVEDAMKHLKQQLDDSERYKLEYQKRYDESNNDKKKLEDIYRERITKLQGENSSLNERCSTLVKTVESKKEEIKEWIRNYDQIVLKQKAVQEQLSSEMEVLRTRSTTSEARVAAAREQAKSAAEETKEWKRKYDYAVGEARSALQKAASVQERSGKETQLREDALREEFSITLANKDEEITEKATKLEKAEQSLTVLRSDLKVAESKLESFEVELASLRLTLSEMTDKLDSANKKALAYEKEANKLEQEKIRMEQKYRSEFQRFDEVKERCKAAEIEAKRATELADKARTDAVTSQKEKSESQRLAMERLAQIERAERQVENLERQKTDLEDELDRLRVSEMEAVSKVTILEARVEEREKEIGSLIKETNAQRAHNVKSLEKLLDEERKAHIAANRRAEALSLELQAAQAHVDNLQQELAQARLKETALDNKIRAASSSHGKRSRFEDVVDMDIGEGSDRILRTNKRARSTRGDDHGPTDEGDEDFQSHQDNGEEEEEEDYRKLTVQNLKHELTKYDCGHLLLNRGHQNKKEILALYEAHVLPKKALAREEERKKQREVTSS
  binding result: binds
